From article doi:10.1101/746180 (bioRxiv, 2020) come the findings set out here.

Test [1] addresses MBTD1(140-562)-(GSA)6-EPC1(644-672) fusion protein (UniProt Q05BQ5 140-562; Q9H2F5 644-672). Kind of test: ITC.
A further test deals with His-MBTD1 (UniProt Q05BQ5 1-628). Kind of test: ITC.

Ends that are not written are not given here.

His-MBTD1, sequence (Q05BQ5 whole entry): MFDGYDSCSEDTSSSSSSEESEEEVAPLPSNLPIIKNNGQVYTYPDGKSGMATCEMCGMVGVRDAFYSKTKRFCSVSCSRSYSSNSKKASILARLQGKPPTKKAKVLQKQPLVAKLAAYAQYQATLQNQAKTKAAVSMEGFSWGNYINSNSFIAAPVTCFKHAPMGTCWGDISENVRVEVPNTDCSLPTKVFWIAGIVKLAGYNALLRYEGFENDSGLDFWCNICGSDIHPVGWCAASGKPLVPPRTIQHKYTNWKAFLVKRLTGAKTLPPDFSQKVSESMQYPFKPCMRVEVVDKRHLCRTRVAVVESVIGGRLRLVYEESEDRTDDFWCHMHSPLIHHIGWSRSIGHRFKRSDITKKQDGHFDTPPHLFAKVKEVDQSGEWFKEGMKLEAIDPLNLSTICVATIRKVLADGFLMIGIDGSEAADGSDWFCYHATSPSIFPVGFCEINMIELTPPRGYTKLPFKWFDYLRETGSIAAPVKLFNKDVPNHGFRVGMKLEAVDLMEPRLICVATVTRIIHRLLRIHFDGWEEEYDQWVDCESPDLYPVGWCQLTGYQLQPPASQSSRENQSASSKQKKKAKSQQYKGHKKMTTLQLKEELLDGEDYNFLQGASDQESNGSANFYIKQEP

In the case of AKRHRK(Me)VLRDN [H4K20me1 peptide], the binding result in test [1] is recorded as “binds”. Broadly, the Kd is the concentration at which binding is half-saturated. Read a high Kd as weaker binding. What is called stoichiometry N is the number of molecules, sites or subunits per partner or assembly. Take QGFVSKTLDSASAQFAASALVTSEQLMGF (domain or fragment, UniProt Q9H2F5 644-672, looked up) [GST-EPC1(644-672)]: in the test with His-MBTD1, the Kd is approximately 67 nM and the “stoichiometry N” value was approximately 1.3.
